The text below walks through data of patent publication US20220332804A1 (CSL INNOVATION, published 2022).

Changes are numbered by the printed parent chain.

Common to all, as to test: SPR, KD relative to WT C2;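 also: biacore SPR at 37 °C, anti-C2 mAbs captured via immobilised goat anti-human IgG, C2 alanine or serine surface mutants as analytes, 1:1 model fitted, double-referenced sensograms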
For one assay, the target named is T1, human C2 P723A (human, UniProt P06681 21-752).
T1 sequence: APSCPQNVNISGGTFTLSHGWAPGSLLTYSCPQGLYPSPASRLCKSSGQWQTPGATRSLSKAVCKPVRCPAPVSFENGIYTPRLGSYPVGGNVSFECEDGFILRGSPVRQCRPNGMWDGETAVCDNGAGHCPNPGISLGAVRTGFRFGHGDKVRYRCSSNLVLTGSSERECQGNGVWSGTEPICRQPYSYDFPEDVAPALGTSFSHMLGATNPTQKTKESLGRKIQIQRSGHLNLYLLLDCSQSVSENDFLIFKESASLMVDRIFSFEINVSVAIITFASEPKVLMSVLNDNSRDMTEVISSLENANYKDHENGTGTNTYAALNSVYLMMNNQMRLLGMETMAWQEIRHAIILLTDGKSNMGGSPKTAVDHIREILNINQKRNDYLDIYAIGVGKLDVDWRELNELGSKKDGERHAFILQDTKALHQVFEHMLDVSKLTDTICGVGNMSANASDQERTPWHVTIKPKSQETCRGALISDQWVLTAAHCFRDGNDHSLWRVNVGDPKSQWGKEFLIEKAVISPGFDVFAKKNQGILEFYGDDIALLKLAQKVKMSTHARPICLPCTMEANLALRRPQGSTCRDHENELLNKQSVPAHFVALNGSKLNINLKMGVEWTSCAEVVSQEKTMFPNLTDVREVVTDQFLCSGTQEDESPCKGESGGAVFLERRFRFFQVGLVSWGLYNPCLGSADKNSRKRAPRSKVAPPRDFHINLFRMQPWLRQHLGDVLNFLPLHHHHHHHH

Another assay has as its target T2, human C2 D404A (human, UniProt P06681 21-752).
T2 sequence: T1 sequence with D384A, A703P

A further assay addresses T3, human C2 P718A (human, UniProt P06681 21-752).
T3 sequence: T1 sequence with P698A, A703P

The next assay has as its target T4, human C2 D441A (human, UniProt P06681 21-752).
T4 sequence: T1 sequence with D421A, A703P

B1: RF16-226 (antibody, human IgG4 S228P, lambda)
heavy: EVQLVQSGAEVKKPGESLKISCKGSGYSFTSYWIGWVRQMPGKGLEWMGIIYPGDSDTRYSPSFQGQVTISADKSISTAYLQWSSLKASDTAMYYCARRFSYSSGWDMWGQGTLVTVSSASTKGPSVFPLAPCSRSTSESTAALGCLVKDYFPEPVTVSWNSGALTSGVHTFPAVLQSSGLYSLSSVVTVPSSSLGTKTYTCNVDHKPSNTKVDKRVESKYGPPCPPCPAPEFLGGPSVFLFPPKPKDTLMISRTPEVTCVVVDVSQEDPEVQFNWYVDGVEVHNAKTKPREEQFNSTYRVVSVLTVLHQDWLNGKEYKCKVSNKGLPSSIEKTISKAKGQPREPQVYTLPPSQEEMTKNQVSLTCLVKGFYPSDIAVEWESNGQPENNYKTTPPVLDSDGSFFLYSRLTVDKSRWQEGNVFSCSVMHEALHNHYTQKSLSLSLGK
light: SYELTQPPSVSVSPGQTARITCSGDALTSKYVAWYQQKSGLAPLLVIYEDTRRPSGIPAKFSGSSSGSVATLTISGAHGDDEADYYCYSTDASGHQRVFGGGTKLTVLSQPKAAPSVTLFPPSSEELQANKATLVCLISDFYPGAVTVAWKADGSPVKAGVETTKPSKQSNNKYAASSYLSLTPEQWKSHRSYSCQVTHEGSTVEKTVAPTECS
notes: pH-dependent anti-C2 antibody from a phage display library; also called WT
For the molecule B1, the Fold diff amounted to 12 fold with human C2 P723A, 1 fold with human C2 D404A, 2 fold with human C2 P718A and 6 fold in the assay with human C2 D441A.
